Drawing on US20170327597A1, this text covers fold tighter binding than mmIgG2b-F405L for one substance.

In the test the target is Z-domain (an engineered analogue of the IgG-binding domain of protein A). Kind of test: isothermal titration calorimetry, Z-domain injected into IgG.

mmIgG2b-P307T-Q309L-K409R (antibody) yielded a fold tighter binding than mmIgG2b-F405L of 5 fold.
